Reference: patent publication US20250101108

Key:
PD-L1 = PD-L1 (UniProt Q9NZQ7)
PD-L2-FLAG = PD-L2-FLAG (UniProt Q9BQ51)
PD-L1-FLAG = PD-L1-FLAG (UniProt Q9NZQ7)
Sequence of PD-L1-FLAG (Q9NZQ7 19-290): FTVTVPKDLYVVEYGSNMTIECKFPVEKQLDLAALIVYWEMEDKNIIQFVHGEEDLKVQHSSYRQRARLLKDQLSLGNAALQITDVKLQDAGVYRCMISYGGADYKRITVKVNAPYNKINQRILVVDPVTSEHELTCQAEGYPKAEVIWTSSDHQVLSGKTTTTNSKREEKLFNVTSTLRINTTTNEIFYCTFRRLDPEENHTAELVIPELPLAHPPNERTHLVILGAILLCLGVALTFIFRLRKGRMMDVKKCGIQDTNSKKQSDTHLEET

Sequence of E3 ligase ITCH (chain, as listed by the source): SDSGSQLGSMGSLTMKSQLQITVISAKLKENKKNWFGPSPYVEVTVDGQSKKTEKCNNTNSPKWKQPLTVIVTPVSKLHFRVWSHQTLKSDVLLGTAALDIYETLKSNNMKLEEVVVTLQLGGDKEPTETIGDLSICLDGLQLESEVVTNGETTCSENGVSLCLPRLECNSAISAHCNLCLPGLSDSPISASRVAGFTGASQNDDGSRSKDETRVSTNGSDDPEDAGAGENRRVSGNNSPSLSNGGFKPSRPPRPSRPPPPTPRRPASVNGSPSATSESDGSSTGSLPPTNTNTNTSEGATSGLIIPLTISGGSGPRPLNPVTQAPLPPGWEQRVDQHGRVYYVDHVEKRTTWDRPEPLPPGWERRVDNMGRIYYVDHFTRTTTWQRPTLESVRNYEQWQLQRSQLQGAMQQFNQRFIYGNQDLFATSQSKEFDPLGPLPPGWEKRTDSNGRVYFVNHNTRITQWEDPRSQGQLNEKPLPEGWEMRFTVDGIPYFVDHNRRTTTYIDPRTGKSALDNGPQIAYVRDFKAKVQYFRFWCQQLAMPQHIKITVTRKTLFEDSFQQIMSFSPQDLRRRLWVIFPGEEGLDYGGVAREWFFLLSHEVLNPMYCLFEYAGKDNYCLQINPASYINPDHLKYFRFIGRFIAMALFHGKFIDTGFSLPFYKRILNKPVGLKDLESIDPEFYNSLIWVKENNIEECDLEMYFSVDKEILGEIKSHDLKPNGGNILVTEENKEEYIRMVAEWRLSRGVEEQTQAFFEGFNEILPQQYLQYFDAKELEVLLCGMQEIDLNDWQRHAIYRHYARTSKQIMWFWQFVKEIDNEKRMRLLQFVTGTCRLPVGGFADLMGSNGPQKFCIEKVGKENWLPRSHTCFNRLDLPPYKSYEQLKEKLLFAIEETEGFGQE
Sequence of PD-L1 (Q9NZQ7 19-290): as the sequence (Q9NZQ7 19-290) above
Sequence of PD-L2-FLAG (Q9BQ51 20-273): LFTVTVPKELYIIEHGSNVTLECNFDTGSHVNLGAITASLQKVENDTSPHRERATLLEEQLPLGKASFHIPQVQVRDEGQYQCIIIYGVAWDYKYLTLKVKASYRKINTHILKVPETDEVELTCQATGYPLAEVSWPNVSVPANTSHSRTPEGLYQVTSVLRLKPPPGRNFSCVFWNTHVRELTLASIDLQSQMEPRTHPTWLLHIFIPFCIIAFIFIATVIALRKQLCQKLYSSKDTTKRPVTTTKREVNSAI

## E3 ligase ITCH
PD-L1
  poly-ubiquitination of endogenous PD-L1 (anti-PD-L1 IP, Western blot of ubiquitin): knockdown of endogenous ITCH reduced PD-L1 poly-ubiquitination (FIGS. 2F, 2G), while over-expression of ITCH increased PD-L1 poly-ubiquitination (FIG. 2H)
PD-L2-FLAG
  poly-ubiquitination (anti-FLAG IP, Western blot of ubiquitin): co-transfection of ITCH with either PD-L1-FLAG (FIG. 2E) or PD-L2-FLAG (FIG. 9I) led to poly-ubiquitination of PD-L1 or PD-L2, respectively
PD-L1-FLAG
  poly-ubiquitination (anti-FLAG IP, Western blot of ubiquitin): co-transfection of ITCH with either PD-L1-FLAG (FIG. 2E) or PD-L2-FLAG (FIG. 9I) led to poly-ubiquitination of PD-L1 or PD-L2, respectively
  ubiquitination sites by mass spectrometry: Mass spectrometry analysis identified lysine 46 (K46) and K162 of PD-L1 as major ubiquitination sites caused by ITCH over-expression in 293T cells
